# Earlier results as cited in patent EP1600162A1, “Shelf-stable formulation of glucagon-like peptide-1” (Eli Lilly & Company, priority 1998, dated 2005).
# Details: stored at 4° C
substance,measurement,value
GLP-1(7-37): GLP-1 molecule affected by dipeptidyl-peptidase IV; background peptide,time after sample preparation at which by-products have been found,eleven
